Data on 167 variants can be found in the RNAGym collection of RNA variant scans (doi:10.1101/gr.219683.116).

The chains are these.
B1: mRNA-splicing (parent)
chain: AGUUGCUGCUGGGAGCUCCAGCACAGUGAAAUGGACAGAAGGGCAGAGCAA

In the data set the parent is B1. As to the kind of experiment: exon inclusion enrichment index; higher = more inclusion; WT1 exon 5 minigene, HEK293.
For the variant G43A, the “exon inclusion enrichment index” value amounted to 0.774.
Under G5A U7C G8A U10C C44A A45C stands 3.95; under C6A U7A C9A U10A U27C, 1.97; under G5A C6G U7G C9A A23C C24A, 0.00335.
C6A U7A C9A U10A C19G A20C: the “exon inclusion enrichment index” value was 1.03.
Under C6A U7A C9A U10A G42C G43C stands 1.88.
Under G5U C6G G8U C9U stands 0.0807; under G5C C6U G8C C9U U10C G11C G12U, 0.675; under G2U U3C G5C C6G U7C U10C, 5.85.
Next, G5C C6G U7C U10C G26U U27G: 3.98.
In the case of G5C C6A U7C G8A U10A A45U G46U, the “exon inclusion enrichment index” value is 0.0227.
Under A45C G46A stands 0.0421.
As for C9A U10C, the “exon inclusion enrichment index” value was determined as 2.65.
G5A C6U U7A G8U U10G: the “exon inclusion enrichment index” value stood at 0.317.
In the case of G5C C6U G8C C9U U10C G21C C22U, the “exon inclusion enrichment index” value was 1.79.
Regarding A40G G41U, the “exon inclusion enrichment index” value was found to be 0.153.
Next, G5A C6U U7A G8U C9A G12U G13C: 0.00721.
Under G5A C6G U7G C9A G42C G43A stands 0.0348; under C6G C9A U10C, 1.01; under G5C C6U G8C C9U U10C A14G G15U, 0.546.
Consider C6A U7A C9A U10A G12C, for which the “exon inclusion enrichment index” value was determined as 2.21.
Under C6A U7C C9G stands 1.05; under U3C G5C C6U G8C C9U U10C, 0.338.
Next, C6A U7A C9A U10A C16U U17A: 0.291; U3G U4C G5U G8U C9U: 0.0275.
Turning to G5U G8U C9U U32A G33U, the “exon inclusion enrichment index” value worked out at 0.0405.
Next, C9U U10C: 2.55; G5A U7C G8A U10C G21U C22A: 0.951.
Take G5C C6A U7C G8A U10A A29C A30U: the “exon inclusion enrichment index” value was determined as 0.0384.
Next, G5A C6U U7A G8U C9A C22U A23U: 0.0179; G5A C6U U7A G8U C9A G21C: 0.0844; G5A U7C G8A U10C A39U A40U: 1.02.
Next, G5C C6G U7C U10C A20U G21U: 2.35.
Under U4G G5C stands 0.226.
In the case of G12U, the “exon inclusion enrichment index” value was determined as 0.925.
Next, G5A C6G U7G C9A A37U G38U: 0.00105; G5A C6U U7A G8U C9A U17C: 0.0376; G5A U7C G8A U10C A14G: 1.38.
G5A C6G U7G C9A G26A: the “exon inclusion enrichment index” value turned out to be 0.00477.
Next, G5A U7C G8A U10C A47G G48C: 1.13; G5A C6G U7G C9A G43A C44A: 0.0069.
Under G5A C6G U7G C9A G43A C44U stands 0.00188; under G5A C6G U7G C9A C36U A37C, 0.000996; under U27A, 0.201.
Consider G5U G8U C9U A47C G48U, for which the “exon inclusion enrichment index” value was 0.134.
Next, G5A U7C G8A U10C G46C A47C: 1.81; G5A C6G U7G C9A A30C A31G: 0.00621; C6A U7A C9A U10A C18U: 0.387.
Next, G5A U7C G8A U10C A45U G46C: 1.55; G5A C6G U7G C9A G28U: 0.000687; G12C G13U: 0.237.
Next, G2U G5A C6G U7G C9A: 0.0266.
For C6A U7C C9A U10C C24G A25U, the “exon inclusion enrichment index” value is 3.51.
Under A39U stands 0.000772.
Next, C6A U7C C9A U10A G11A: 1.98; G5A C6G U7G C9A A45G G46U: 0.00135; G5A C6G U7G C9A C36G A37U: 0.00107.
Next, C6A U7C C9A U10C C44U A45G: 2.34; C6A U7C C9A U10C A45U G46U: 1.75; C6A U7C C9A U10C A45U G46A: 2.51.
As for G5A U7C G8A U10C C16U U17A, the “exon inclusion enrichment index” value came out at 1.74.
As for G5A C6U U7A G8U C9A G46C, the “exon inclusion enrichment index” value amounted to 0.0876.
Next, G5A C6G U7G C9A A40U G41A: 0.000658; G5A U7C G8A U10C C19A A20G: 0.441; G48C: 0.292.
Next, C24U: 0.0472.
Next, C6A U7C G8C C9A U10A: 0.587; G5C C6A U7C G8A U10A U17C C18U: 0.0619; G5A U7C G8A U10C C16G U17A: 2.77.
For G5C C6U G8C C9U U10C G46C A47C, the “exon inclusion enrichment index” value turned out to be 1.76.
With G5A C6U U7A G8U C9A G28U A29C, the “exon inclusion enrichment index” value came to 0.0467.
Turning to G5A C6A U7C G8A U10C, the “exon inclusion enrichment index” value was found to be 1.79.
In the case of G5U G8U C9U G28U A29C, the “exon inclusion enrichment index” value worked out at 0.0643.
Under G5A C6G U7G C9A A23G C24G stands 0.0109; under U3C U4C G5A U7C G8A U10C, 2.69.
Under G5C C6A U7C G8A U10A U27G G28A stands 0.122; under G5C C6A U7C G8A U10A U27G G28U, 0.00217.
With G5C C6A U7C G8A U10A G26A, the “exon inclusion enrichment index” value amounted to 0.156.
For the variant C6A U7C C9A U10C C18U C19U, the “exon inclusion enrichment index” value was 0.145.
Under G5A C6G U7G C9A U32A G33U stands 0.00206; under C6A U7A C9A U10A C36U A37U, 0.411; under G5A C6G U7G C9A U17G C18G, 0.00151.
Under G5A C6U U7A C9G stands 0.0115; under G5A C6U U7A G8U C9A U17A C18A, 0.0198; under G5C C6G U7C U10C A30G A31U, 1.7.
Next, C6A U7C C9A U10C C18G C19U: 1.28; G5U G8U C9U A47U G48C: 0.0643.
For C6A U7A C9A U10A U17G, the “exon inclusion enrichment index” value came to 0.51.
G5A C6U U7A G8U C9A G13C A14G: the “exon inclusion enrichment index” value turned out to be 0.145.
On to G5A C6U U7A G8U C9A G13C A14C, for which the “exon inclusion enrichment index” value is 0.039.
Next, G5C U7C C9A U10C: 0.262; G5A C6G U7G C9A A39G A40G: 0.0132; G5U C6A: 0.00655.
Under C6A U7A C9A U10A G12A G13C stands 1.94; under U3C U4G C6A U7C C9A U10C, 2.89.
Next, G5C C6U G8C C9U U10C U27G G28U: 0.00454; G5C C6U G8C C9U U10C G21U C22A: 0.661; G5A U7C G8A U10C G41C G42A: 2.13.
In the case of G5C C6U G8C C9U U10C G15A C16G, the “exon inclusion enrichment index” value was found to be 1.28.
Under G5A C6U U7A G8U C9A C22G A23U stands 0.00095; under G5C C6U G8C C9U, 1.16; under G5C C6U G8A C9A U10C, 0.564.
Under G5U G8U C9U A23G C24U stands 0.0193; under G5C C6U G8C C9U U10C U27A G28C, 2.07.
Take G5A C6U U7A G8U C9A C36U A37U: the “exon inclusion enrichment index” value is 0.0384.
Next, G5A C6G U7G C9A G33U G34A: 0.000839; G5A C6G U7G C9A G33U G34U: 0.000939; G5A C6U U7A G8U C9G: 0.0579.
Under U3A U4A G5A U7C G8A U10C stands 2.15.
Next, G5C C6U G8C C9U U10C G15U C16A: 1.38; G5A U7C G8A U10C G13U A14C: 1.41; G5U G8U C9U G43U C44G: 0.112.
For G5C C6A U7C G8A U10A G42C G43U, the “exon inclusion enrichment index” value was found to be 0.483.
Under C6A U7A C9A U10A G11U stands 2.89; under G5C C6U G8C C9U U10C G28C A29C, 1.58.
Next, C6A U7C C9A U10C G21C C22G: 3.98; C6A U7A C9A U10A G38U: 0.223; C6A U7A C9A U10A G38A: 0.314.
Under G5C C6U G8C C9U U10C C36A stands 1.44.
For the variant G5A C6G U7G C9A U32C G33C, the “exon inclusion enrichment index” value came to 0.00477.
Under C6A U7A C9A U10A C36G A37U stands 0.216; under G5U G8U C9U A45U, 0.21.
Under G5C C6A U7C G8A U10A A40C G41A stands 0.0281; under C6G U7G, 0.0143; under G5C C6A U7C G8A U10A A29G A30C, 0.0319.
Next, G5A U7C G8A U10C U17C C18A: 1.54; C6A U7A C9A U10A A25C G26C: 1.25; G5A U7C G8A U10C A23C: 1.89.
With G5A U7C G8A U10C A23U, the “exon inclusion enrichment index” value was 1.81.
As for G5A U7C G8A U10C C19G A20G, the “exon inclusion enrichment index” value was 1.34.
Next, G5C C6U G8C C9U U10C C18G C19G: 2.78.
Under U4A G5A C6A U7C G8A U10A stands 0.0681; under C6A U7C C9A U10C G13U, 1.08; under C6A U7C C9A U10C G41A, 2.41.
As to G5C C6U G8C C9U U10C G21U, the “exon inclusion enrichment index” value stood at 1.22.
Take U4G: the “exon inclusion enrichment index” value was determined as 0.0792.
Under C6A U7C C9A U10C A25C G26C stands 4.09; under G5A C6G U7G C9A G42A G43U, 0.0457.
Next, G5C C6A U7C G8A U10A A31C U32G: 0.221; G5A C6G U7G C9A G12U G13C: 0.00117.
Under G5C C6U G8C C9U U10C C24U stands 0.544; under G5A U7C G8A U10C C18G C19A, 2.92; under G5A C6U U7A G8U C9A A14U, 0.00769.
On to C6A U7C C9A U10C C24A A25C, for which the “exon inclusion enrichment index” value was 4.45.
As for G5C C6G U7C U10C G13U A14C, the “exon inclusion enrichment index” value came out at 1.67.
Next, G26A: 0.0943; G5A C6U U7A G8U C9A G38U A39C: 0.045.
Under G5C C6G U7C U10C G21C C22G stands 4.61; under G5C C6A U7C G8A U10A A39G A40C, 0.119; under C6A U7A C9A U10A G33U G34U, 0.0929.
Next, G5C C6A U7C G8A U10A G28U: 0.00934; C19G: 2.42; G5U G8U C9U G42C: 0.786.
G5C C6G U7C U10C G38C A39G: the “exon inclusion enrichment index” value worked out at 2.71.
Under G5C C6G U7C U10C G46C A47G stands 3.52.
On to G5C C6G U7C U10C G46C A47C, for which the “exon inclusion enrichment index” value was found to be 2.58.
Under G8C C9U stands 0.216; under G5U G8U C9U C36A A37U, 0.0263.
Next, C6A U7C C9A U10C A40U G41U: 1.9.
Next, G5A C6G U7G C9A G11U G12C: 0.00339; A23G C24U: 0.167; G5A C6U U7A G8U C9A C44G A45U: 0.0272.
As for G5C C6U G8C C9U U10C U32G, the “exon inclusion enrichment index” value amounted to 0.212.
With G5C C6U G8C C9U U10C C16G, the “exon inclusion enrichment index” value came to 1.02.
Next, G5A C6G U7G C9A C18A C19A: 0.0013.
Next, C6A U7A C9A U10A A30G A31G: 0.168.
Take G5C C6A U7C G8A U10A G33C G34C: the “exon inclusion enrichment index” value was found to be 0.0275.
